Test results as given in publication PMC13182210, “Time‐Resolved Native Mass Spectrometry Reveals Reversible Light‐Driven Oligomerization of Arabidopsis Cryptochrome 1 and Its Antagonism by BIC1” (Angewandte Chemie (International Ed. in English), 2026).

B1: Blue-light Inhibitor of Cryptochromes 1 (BIC1) (natural protein, UniProt Q9LXJ1 1-140, looked up)
chain: MMNIDDTTSPMAHPIGPSQPPSDQTKQDPPSLPQEAASSVSADKKDLALLEEKPKQSQEEDRVDTGRERLKKHRREIAGRVWIPEIWGQEELLKDWIDCSTFDTCLVPAGISSARTALVEEARRAASASGGLHNRCLILR
notes: The calculated mass may include a tag; Construct details probably stand in the Supporting Information
B2: Arabidopsis thaliana cryptochrome 1 photolyase homology region (CRY1-PHR) (domain or fragment, UniProt Q43125 1-509, looked up)
chain: MSGSVSGCGSGGCSIVWFRRDLRVEDNPALAAAVRAGPVIALFVWAPEEEGHYHPGRVSRWWLKNSLAQLDSSLRSLGTCLITKRSTDSVASLLDVVKSTGASQIFFNHLYDPLSLVRDHRAKDVLTAQGIAVRSFNADLLYEPWEVTDELGRPFSMFAAFWERCLSMPYDPESPLLPPKKIISGDVSKCVADPLVFEDDSEKGSNALLARAWSPGWSNGDKALTTFINGPLLEYSKNRRKADSATTSFLSPHLHFGEVSVRKVFHLVRIKQVAWANEGNEAGEESVNLFLKSIGLREYSRYISFNHPYSHERPLLGHLKFFPWAVDENYFKAWRQGRTGYPLVDAGMRELWATGWLHDRIRVVVSSFFVKVLQLPWRWGMKYFWDTLLDADLESDALGWQYITGTLPDSREFDRIDNPQFEGYKFDPNGEYVRRWLPELSRLPTDWIHHPWNAPESVLQAAGIELGSNYPLPIVGLDEAKARLHEALSQMWQLEAASRAAIENGSEEG
notes: Cryptochrome 1 of Arabidopsis thaliana, photolyase homology region (PHR) domain; Construct limits, tags and host are not in the main text and probably stand in the Supporting Information; The oligomeric state depends on light: mostly monomer in the dark, tetramer under blue light; also called CRY1 PHR domain; wild-type CRY1; source: recombinant, purified

Legend:
[1] = target: CRY1^L407F mutant of the Arabidopsis CRY1 PHR domain (Arabidopsis thaliana) (UniProt Q43125); test: SEC; analytical size exclusion chromatography, samples kept in darkness
[2] = target: CRY1^L407F mutant of the Arabidopsis CRY1 PHR domain (Arabidopsis thaliana) (UniProt Q43125); test: native MS; LILBID-MS in darkness; CRY1 alone or with BIC1 in an equimolar ratio
[3] = target: CRY1^L407F mutant of the Arabidopsis CRY1 PHR domain (Arabidopsis thaliana) (UniProt Q43125); test: native MS; quantitative LILBID-MS (qLILBID-MS), label-free, in the dark; mean of three measurements
[4] = target: B2; test: as above; conditions: both partners purified
[5] = target: B2; test: native MS; quantitative LILBID-MS (qLILBID-MS), label-free, under blue light; mean of three measurements; conditions: both partners purified
[6] = target: the molecule itself; test: native MS; nESI-MS with a blue-light LED on the sample, static and time-resolved, with 100 µM ATP; two-step reversible kinetic model monomer to dimer to tetramer
[7] = target: the molecule itself; test: native MS; LILBID-MS with a blue-light LED on the sample throughout; CRY1 alone, with BIC1 in an equimolar ratio, or BIC1 added to pre-illuminated tetrameric CRY1
[8] = target: the molecule itself; test: native MS; nESI-MS with a blue-light LED on the sample, static and time-resolved, room temperature, no ATP; two-step reversible kinetic model monomer to dimer to tetramer

Molecule: CRY1^L407F mutant of the Arabidopsis CRY1 PHR domain (from UniProt Q43125 1-681) (domain or fragment)
- stoichiometry N [1]: 4
- stoichiometry N [2]: 4

Molecule: B1
- Kd [3]: 100 nM
- Kd [4]: ~1200 nM
- Kd [5]: 130 ± 90 nM

Molecule: B2
- fold decrease of dimer dissociation rate with 100 µM ATP against no ATP [6]: ~10 fold
- fold decrease of tetramer dissociation rate with 100 µM ATP against no ATP [6]: ~2 fold
- fold increase of dimer-to-tetramer association rate with 100 µM ATP against no ATP [6]: 4 fold
- fold increase of monomer-to-dimer association rate with 100 µM ATP against no ATP [6]: ~2 fold
- stoichiometry N [7]: 4
- half-life of tetramer formation (single-exponential fit) [8]: ~18 s
